According to patent US20240376163A1, “PEPTIDE FOR INHIBITING CALCINEURIN AND USE THEREOF” (Seoul National University R&DB Foundation, priority 2023, published 2024):

Columns and labels:
Test in all cases: In vitro kinase assay
Type in all cases: biochemical
Conditions in all cases: purified GST-tagged peptide
[1] = target: p38a (Homo sapiens, UniProt Q16539)
Experimental: (§1) Purified GST-tagged peptides were used for the in vitro kinase assay using activated recombinant kinase obtained from Proqinase GmbH (Freiburg, Germany). Kinase reactions were induced in reaction buffer (50 mM HEPES-NaOH, pH 7.5, 3 mM MgCl2, 3 mM MnCl2, 3 μM sodium orthobanadate, 1 mM dithiothreitol, 50 μM unlabeled ATP, 5 μCi 32P-γ-ATP) for 1 hour at 30° C. The reaction was stopped by the addition of 5× sample buffer, and proteins were isolated using SDS-PAGE. The gels were stained with Coomassie Brilliant Blue, dried, and developed on X-ray film.

[2] = target: T1, ERK2 (Homo sapiens, UniProt P28482)
T1 construct: purchased Proqinase GmbH (Freiburg, Germany)
T1 sequence (P28482 whole entry): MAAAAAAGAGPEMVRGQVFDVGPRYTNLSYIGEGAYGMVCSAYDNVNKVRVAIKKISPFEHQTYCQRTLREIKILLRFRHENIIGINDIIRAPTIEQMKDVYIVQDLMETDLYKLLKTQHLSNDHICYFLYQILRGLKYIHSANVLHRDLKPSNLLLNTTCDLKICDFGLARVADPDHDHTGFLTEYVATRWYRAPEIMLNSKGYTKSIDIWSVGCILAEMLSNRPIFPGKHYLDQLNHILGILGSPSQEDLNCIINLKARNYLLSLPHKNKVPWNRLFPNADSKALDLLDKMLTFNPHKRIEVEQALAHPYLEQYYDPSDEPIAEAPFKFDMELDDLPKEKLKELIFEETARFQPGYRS
Experimental: as §1

[3] = target: T2, JNK1 (Homo sapiens, UniProt P45983)
T2 construct: purchased Proqinase GmbH (Freiburg, Germany)
T2 sequence (P45983 whole entry): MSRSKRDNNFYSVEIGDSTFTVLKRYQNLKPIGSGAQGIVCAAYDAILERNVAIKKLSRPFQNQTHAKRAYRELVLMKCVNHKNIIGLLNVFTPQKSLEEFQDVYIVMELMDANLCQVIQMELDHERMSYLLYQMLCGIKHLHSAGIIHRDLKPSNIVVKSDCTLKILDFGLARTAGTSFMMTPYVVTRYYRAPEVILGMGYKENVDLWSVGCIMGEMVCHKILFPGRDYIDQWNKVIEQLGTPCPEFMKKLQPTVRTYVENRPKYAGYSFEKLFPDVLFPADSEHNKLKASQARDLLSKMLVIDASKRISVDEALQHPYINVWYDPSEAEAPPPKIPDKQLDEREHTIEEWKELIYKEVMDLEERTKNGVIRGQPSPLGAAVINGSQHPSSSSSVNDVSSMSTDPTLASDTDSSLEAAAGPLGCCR
Experimental: as §1

Sequence of p38a (Q16539 whole entry): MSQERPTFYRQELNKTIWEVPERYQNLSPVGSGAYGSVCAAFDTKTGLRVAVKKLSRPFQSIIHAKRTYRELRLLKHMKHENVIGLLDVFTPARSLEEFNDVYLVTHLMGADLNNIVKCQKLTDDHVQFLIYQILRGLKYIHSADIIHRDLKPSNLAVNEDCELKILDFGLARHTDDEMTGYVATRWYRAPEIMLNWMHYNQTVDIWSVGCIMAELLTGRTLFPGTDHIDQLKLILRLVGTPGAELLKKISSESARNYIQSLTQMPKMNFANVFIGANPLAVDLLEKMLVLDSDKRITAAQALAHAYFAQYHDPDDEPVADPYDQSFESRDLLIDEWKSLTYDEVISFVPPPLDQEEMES

PEITVTPPTP [CABIN1-L-1-2]
phosphorylate: phosphorylation by p38a [1] | phosphorylation by ERK2 [2] | phosphorylation by JNK1 [3]
